This is an account of results in US20220064329A1 (Novo Nordisk, published 2022).

Residue numbers refer to the chain shown, from its start.

To fix the notation:
T1: recombinant human activated Factor VII (FVIIa) (human, UniProt P08709 61-212; P08709 213-466, ten glutamate residues of the Gla domain may be gamma-carboxylated)
T1 construct: chains tethered by a disulfide bond; also called Factor VIIa; rFVIIa
T1 sequence 1: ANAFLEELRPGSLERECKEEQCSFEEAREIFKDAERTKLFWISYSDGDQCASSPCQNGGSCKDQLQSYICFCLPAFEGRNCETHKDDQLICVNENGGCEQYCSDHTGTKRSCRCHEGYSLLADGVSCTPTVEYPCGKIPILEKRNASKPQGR
T1 sequence 2: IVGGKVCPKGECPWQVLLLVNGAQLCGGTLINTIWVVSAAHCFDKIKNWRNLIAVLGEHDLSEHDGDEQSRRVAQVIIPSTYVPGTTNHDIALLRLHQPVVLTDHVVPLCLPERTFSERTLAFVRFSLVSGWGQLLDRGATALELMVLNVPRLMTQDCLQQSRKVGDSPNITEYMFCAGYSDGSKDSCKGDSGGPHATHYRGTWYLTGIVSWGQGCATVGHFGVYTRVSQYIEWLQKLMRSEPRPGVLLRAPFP

T2: recombinant human activated Factor VII (FVIIa) (human, UniProt P08709 61-212; P08709 213-466, Gla domain: ten glutamate residues may be gamma-carboxylated)
T2 construct: two-chain form after cleavage between Arg152 and Ile153; light chain (Gla, EGF domains) and heavy chain (protease domain) tethered by a disulfide bond; also called rFVIIa; human FVIIa
T2 sequence 1: T1 sequence 1
T2 sequence 2: T1 sequence 2

B1: biAb0001 (bispecific antibody, human IgG4 S228P, kappa)
heavy 1: QVQLQESGPGLVKPSQTLSLTCTVSGYSISSDSAWSWIRQPPGKGLEWIGYIQYSGSTNYNPSLKSRVTISRDTSKNQFSLKLSSVTAADTAVYYCARSVNYYGNSFAVGYWGQGTLVTVSSASTKGPSVFPLAPCSRSTSESTAALGCLVKDYFPEPVTVSWNSGALTSGVHTFPAVLQSSGLYSLSSVVTVPSSSLGTKTYTCNVDHKPSNTKVDKRVESKYGPPCPPCPAPEFLGGPSVFLFPPKPKDTLMISRTPEVTCVVVDVSQEDPEVQFNWYVDGVEVHNAKTKPREEQFNSTYRVVSVLTVLHQDWLNGKEYKCKVSNKGLPSSIEKTISKAKGQPREPQVYTLPPSQEEMTKNQVSLTCLVKGFYPSDIAVEWESNGQPENNYKTTPPVLDSDGSFLLYSKLTVDKSRWQEGNVFSCSVMHEALHNHYTQKSLSLSLGK
light 1: EIVLTQSPATLSLSPGERATLSCRASQGISDYLHWYQQKPGEAPRLLIKYTSQPATGIPARFSGSGSGTDFTLTISSLEPEDFAVYYCQNGHSFPLTFGQGTKLEIKRTVAAPSVFIFPPSDEQLKSGTASVVCLLNNFYPREAKVQWKVDNALQSGNSQESVTEQDSKDSTYSLSSTLTLSKADYEKHKVYACEVTHQGLSSPVTKSFNRGEC
heavy 2: not shown
light 2: DIVMTQTPLSSPVTLGQPASISCRSSQSLVHRQGNTYFHWLQQRPGQPPRLLIYKVSNRFSGVPDRFSGSGAGTDFTLKISRVEAEDVGVYYCSQSTHVPYTFGQGTKLEIKRTVAAPSVFIFPPSDEQLKSGTASVVCLLNNFYPREAKVQWKVDNALQSGNSQESVTEQDSKDSTYSLSSTLTLSKADYEKHKVYACEVTHQGLSSPVTKSFNRGEC
notes: also called anti-FVII(a)/anti-TLT-1 bispecific antibody of mAb0865 and mAb1076
B2: mAb0077(OA) (antibody, human IgG4 S228P, kappa)
heavy: not shown
light: DIVMTQSPATLSVTAGDRVSLSCRASQGISDYLHWYQQKSHESPRLLIKYTSQPVSGIPSRFSGSGSGSEFTLSINSVEPEDVGVYYCQNGHSFPLTFGAGTKLELKRTVAAPSVFIFPPSDEQLKSGTASVVCLLNNFYPREAKVQWKVDNALQSGNSQESVTEQDSKDSTYSLSSTLTLSKADYEKHKVYACEVTHQGLSSPVTKSFNRGEC
chain: VESKYGPPCPPCPAPEFLGGPSVFLFPPKPKDTLMISRTPEVTCVVVDVSQEDPEVQFNWYVDGVEVHNAKTKPREEQFNSTYRVVSVLTVLHQDWLNGKEYKCKVSNKGLPSSIEKTISKAKGQPREPQVYTLPPSQEEMTKNQVSLTCLVKGFYPSDIAVEWESNGQPENNYKTTPPVLDSDGSFLLYSKLTVDKSRWQEGNVFSCSVMHEALHNHYTQKSLSLSLGK
notes: one-armed (OA) antibody, constant domain type E (Duobody); murine VL/VH; also called monovalent 11F2
B3: biAb0245 (bispecific antibody, human IgG4 S228P, kappa)
heavy 1: B1 heavy 1 with Q1D, A108W, G110D, Y111P
light 1: B2 light
heavy 2: not shown
light 2: B1 light 2
notes: also called anti-FVII(a)/anti-TLT-1 bispecific antibody of mAb0873 and mAb1076
B4: mAb0099(OA) (antibody, human IgG4 S228P, kappa)
heavy: DVQLQESGPGLVEPSQSLSLTCTVTGYSITSDSAWSWIRQFPGNKLEWMGYIQYSGSTNYNPSLKSRISVTRDTSKNQFFLRLSSVTAEDTATYYCTRSVNYYGNSFAVGYWGQGTSVTVSSASTKGPSVFPLAPCSRSTSESTAALGCLVKDYFPEPVTVSWNSGALTSGVHTFPAVLQSSGLYSLSSVVTVPSSSLGTKTYTCNVDHKPSNTKVDKRVESKYGPPCPPCPAPEFLGGPSVFLFPPKPKDTLMISRTPEVTCVVVDVSQEDPEVQFNWYVDGVEVHNAKTKPREEQFNSTYRVVSVLTVLHQDWLNGKEYKCKVSNKGLPSSIEKTISKAKGQPREPQVYTLPPSQEEMTKNQVSLSCAVKGFYPSDIAVEWESNGQPENNYKTTPPVLDSDGSFFLVSRLTVDKSRWQEGNVFSCSVMHEALHNHYTQKSLSLSLGK
light: B2 light
chain: not shown
B5: mAb0138(OA) (antibody, human IgG4 S228P, kappa)
heavy: not shown
light: B1 light 1 with F83V, A84G, Q100A, I106L
chain: B2 chain
notes: one-armed (OA) antibody, constant domain type E
B6: mAb0117 (antibody, human IgG4 S228P, kappa, V domains shown)
VH: DVQLQESGPGLVEPSQTLSLTCTVSGYSITSDSAWSWIRQFPGKGLEWMGYIQYSGSTNYNPSLKSRVTISRDTSKNQFSLKLSSVTAEDTAVYYCARSVNYYGNSFAVGYWGQGTSVTVSS
VL: EIVLTQSPATLSLSPGERATLSCRASQGISDYLHWYQQKPGEAPRLLIKYTSQPATGIPARFSGSGSGTDFTLTISSLEPEDVGVYYCQNGHSFPLTFGAGTKLELKR
notes: humanized 11F2 variant, first round
B7: mAb0123 (antibody, human IgG4 S228P, kappa, V domains shown)
VH: B6 VH with G45K
VL: B6 VL with D31S
notes: as for B6
B8: mAb0119 (antibody, human IgG4 S228P, kappa)
heavy: not shown
light: B1 light 1 with F83V, A84G, Q100A, I106L
notes: as for B6
B9: mAb0121 (antibody, human IgG4 S228P, kappa, V domains shown)
VH: B6 VH with G45K, Y111P
VL: B6 VL
notes: as for B6
B10: mAb0124 (antibody, human IgG4 S228P, kappa, V domains shown)
VH: B6 VH with G45K
VL: B6 VL with E42Q
notes: as for B6
B11: mAb0130 (antibody, human IgG4 S228P, kappa, V domains shown)
VH: B6 VH with G45K
VL: B6 VL with V83F
notes: as for B6
B12: mAb0126 (antibody, human IgG4 S228P, kappa, V domains shown)
VH: B6 VH with G45K
VL: B6 VL with I29V
notes: as for B6
B13: mAb0122 (antibody, human IgG4 S228P, kappa)
heavy: not shown
light: B1 light 1 with F83V, A84G, I106L
notes: as for B6
B14: mAb0120 (antibody, human IgG4 S228P, kappa, V domains shown)
VH: B6 VH with T30S, G45K
VL: B6 VL
notes: as for B6
B15: mAb0128 (antibody, human IgG4 S228P, kappa, V domains shown)
VH: B6 VH with G45K
VL: B6 VL with P15A, P40S
notes: as for B6
B16: mAb0118 (antibody, human IgG4 S228P, kappa, V domains shown)
VH: B6 VH with G45K, M49I
VL: B6 VL
notes: as for B6
B17: mAb0129 (antibody, human IgG4 S228P, kappa, V domains shown)
VH: B6 VH with G45K
VL: B6 VL with T51A
notes: as for B6
B18: mAb0125 (antibody, human IgG4 S228P, kappa, V domains shown)
VH: B6 VH with G45K
VL: B6 VL with G84A
notes: as for B6

The first experiment addresses T1, recombinant human activated Factor VII …. As to the kind of experiment: SPR (Biacore). Background: Surface plasmon resonance follows binding to a sensor surface in real time, without labels.
With B1, the Kd (as a rule, the concentration at which binding is half-saturated) was 0.06 nM.

For B2, the Kd came to 0.041 nM.

As to B3, the Kd was 600 nM.

B4: the Kd came to 0.12 nM.

With B5, the Kd turned out to be 0.13 nM.

The next experiment has the same target. As to the kind of experiment: cell-based or functional assay.
Take B2: the “AT inhibition (kinh %)” value was determined as 119% and the “TGT activity (%% FVIIa)” value amounted to 103%.

For B4, the “AT inhibition (kinh %)” value was 117% and the “TGT activity (%% FVIIa)” value was determined as 98%.

For B5, the “AT inhibition (kinh %)” value stood at 105% and the “TGT activity (%% FVIIa)” value came to 99%.

The target in a further experiment is T2, recombinant human activated Factor VII …. Briefly: Bio-Layer Interferometry (Fortebio), antibody on anti-human tips, FVIIa 25-200 nM. The method, then:
All steps were performed in running buffer (20 mM HEPES buffer (pH 7.4), 150 mM NaCl, 5 mM CaCl2, 0.03% Tween 20, 1 mg/ml IgG-free BSA) at […] Antibodies were captured on anti-human tips (AHC, Fortebio) for 3 min at a concentration of 10 ug/ml. This was followed by a 3 min incubation to establish a baseline. Following this, association was monitored for 3 min using four different concentrations of VIIa (25 nm, 50 nM, 100 nM, and 200 nM), followed by a 3 mi dissociation. Sensorgrams were analysed using Fortebio data analysis software.
(In general: Biolayer interferometry detects binding as a change in optical thickness at a sensor tip.)
Turning to B6, the Kd was 1.4 nM.

With B7, the Kd was determined as 5.8 nM.

As for B8, the Kd stood at 1 nM.

With B9, the Kd turned out to be 2 nM.

For B10, the Kd came to 1.8 nM.

Turning to B11, the Kd amounted to 1.8 nM.

Regarding B12, the Kd was determined as 2.5 nM.

Consider B13, for which the equilibrium dissociation constant (Kd) stood at 1.7 nM.

Turning to B14, the Kd was found to be 1.7 nM.

In the case of B15, the Kd is 1.7 nM.

For the molecule B16, the Kd came to 1.7 nM.

As to B17, the Kd stood at 2.2 nM.

On to B18, for which the Kd was 1.7 nM.
